The values that follow come from patent publication US20160280796A1 (Memorial Sloan Kettering, published 2016).

For assay [1], the target named is T1, MHC1/WT1 peptide complex (soluble, biotinylated MHC-WT1 loaded on streptavidin biosensor) (human).
T1 construct: also called WT1/HLA-A2 complex
Put plainly: ForteBio Octet QK, biotinylated MHC-WT1 on streptavidin biosensor, antibody at 20 µg/ml, 1:1 model.

Assay [2] concerns the target T1, MHC1/WT1 peptide complex (soluble, …). The assay can be described thus: ForteBio Octet QK, biotinylated MHC-WT1 on streptavidin biosensor, antibody at 10 µg/ml, 1:1 model.

One may read the Kd as the equilibrium constant for the complex coming apart. In general, koff refers to a measure of how fast the partners let go of each other. Low readings indicate slow dissociation, high ones fast dissociation. One may read the kon as the rate constant with which the complex forms. A lower kon goes with slow association.

B1: ESK1-OKT3 (bi-specific), full length bi-specific antibody made from ESK1 and anti-CD3 OKT3 by 2-MEA reduction and re-oxidation (bispecific antibody)
heavy 1: not shown
light 1: not shown
heavy 2: not shown
light 2: DIQMTQSPSSLSASVGDRVTITCSASSSVSYMNWYQQTPGKAPKRWIYDTSKLASGVPSRFSGSGSGTDYTFTISSLQPEDIATYYCQQWSSNPFTFGQGTKLQITRTVAAPSVFIFPPSDEQLKSGTASVVCLLNNFYPREAKVQWKVDNALQSGNSQESVTEQDSKDSTYSLSSTLTLSKADYEKHKVYACEVTHQGLSSPVTKSFNRGEC
notes: also called ESK1/OKT3 bi-specific monoclonal antibody
As for B1, in assay [1], the equilibrium dissociation constant (Kd) is 92.2 nM, the off-rate (koff) stood at 0.0033 s⁻¹ and the kon turned out to be 35800 M⁻¹ s⁻¹.

B2: ESK1 (full-length antibody, parent of the ESK1-OKT3 bi-specific) (antibody, V domains shown)
VH: QMQLVQSGAEVKEPGESLRISCKGSGYSFTNFWISWVRQMPGKGLEWMGRVDPGYSYSTYSPSFQGHVTISADKSTSTAYLQWNSLKASDTAMYYCARVQYSGYYDWFDPWGQGTLVTVSS
VL: not shown
notes: also called ESK1 mAb
In assay [2], B2 gave a Kd of 9.12 nM, an off-rate constant (koff) of 0.00499 s⁻¹ and a kon of 547000 M⁻¹ s⁻¹.
